As a reminder, the EC50 is the concentration at which the effect is half-maximal. The Kd is the equilibrium constant for the complex coming apart. As a reminder, the IC50 is the concentration that gives 50% inhibition.

Residue numbers refer to the chain shown, from its start. Names may count otherwise.

The values that follow come from patent US20120094909A1 (Bristol-Myers Squibb, published 2012).

The labels stand for the following.
B1: 2382H04 (designed binder)
chain: MGVSDVPRDLEVVAATPTSLLISWDAPAAGGYGYYRITYGETGGNSPVQEFTVPSSKGTATISGLKPGVDYTITVYAVEYDFPGAGYYHRPISINYRTEIDKPSQHHHHHH
B2: 2381F11 (designed binder)
chain: B1 chain with A29D, S55V, G58S, D81T
B3: 2381B08 (designed binder)
chain: B1 chain with A29D, D81T
B4: 2382G03 (designed binder)
chain: MGVSDVPRDLEVVAATPTSLLISWDAPAEAEAYGYYRITYGETGGNSPVQEFTVPVSKGTATISGLKPGVDYTITVYAVEYVFPGAGYYHRPISINYRTEIDKPSQHHHHHH
B5: 2381H06 (designed binder)
chain: MGVSDVPRDLEVVAATPTSLLISWGDVRTNEARQGYYRITYGETGGNSPLQGFTVPGSKGTATISGLKPGVDYTITVYAVEYTYEHSGYYHRPISINYRTEIDKPSQHHHHHH
B6: 2381B02 (designed binder)
chain: MGVSDVPRDLEVVAATPTSLLISWEPFSRLPGGGEYYRITYGETGGNSPLQQFTVPGSKGTATISGLKPGVDYTITVYAVEYPYDYSGYYHRPISINYRTEIDKPSQHHHHHH
B7: 2381D04 (designed binder)
chain: B6 chain with Y82F, Y86H
B8: 2381B04 (designed binder)
chain: B6 chain with D85E, Y86H
B9: 2381G06 (designed binder)
chain: MGVSDVPRDLEVVAATPTSLLISWSEKLDGKARRGYYRITYGETGGNSPVQQFTVPGSKGTATISGLKPGVDYTITVYAVEFPYDHSGYYHRPISINYRTEIDKPSQHHHHHH
B10: 2451A10 (designed binder)
chain: MGVTDVPRDMEVVAATPTSLLISWQPPAVTYGYYRITYGETGGNSTLQQFTVPVYKGTATISGLKPGVDYTITVYAVEYPYDHSGYYHRPISINYRTEIDKPSQHHHHHH
B11: 2451C11 (designed binder)
chain: B10 chain with V3I, T4V, M10L, Q25D, V29G, T30A, T46P, L47K, V54G
B12: 2382B09 (designed binder)
chain: MGVSDVPRDLEVVAATPTSLLISWDAPADAYGYYRITYGETGGNSPVQEFTVPVSKGTATISGLKPGVDYTITVYAVEFDYPGSGYYHRPISINYRTEIDKPSQHHHHHH
B13: 2971E02 (designed binder)
chain: B12 chain with A28S, A30D, V54I, S55G, D80P, Y81W, G83H, S84A
B14: 2382H09 (designed binder)
chain: B12 chain with D29A, V54S, Y81F
B15: 2971A03 (designed binder)
chain: B12 chain with A26P, A28S, A30D, V54I, S55G, D80P, Y81W, G83H, S84A
B16: 2382D09 (designed binder)
chain: B12 chain with D29E, A30G, Y81F, S84A
B17: 2971A09 (designed binder)
chain: B12 chain with A30D, V54I, S55G, D80P, Y81W, G83H, S84A
B18: 2382B10 (designed binder)
chain: B12 chain with V54S, F79Y, Y81F
B19: 2382H10 (designed binder)
chain: B12 chain with D29G, A30G, Y81F
B20: 2382C09 (designed binder)
chain: B12 chain with D29E, A30G, Y81F
B21: 2381H01 (designed binder)
chain: MGVSDVPRDLEVVAATPTSLLISWSPRDSTGLVRRGYYRITYGETGGNSPVQQFTVPGSKGTATISGLKPGVDYTITVYAVEYPYDHSGYYHRPISINYRTEIDKPSQHHHHHH
B22: 2382D05 (designed binder)
chain: B1 chain with A29D, S55V, Y80F
B23: 1922G04(R25D) (designed binder)
chain: MGVSDVPRDLEVVAATPTSLLISWDPPSHAYGYYRITYGETGGNSPVQEFTVPIGKGTATISGLKPGVDYTITVYAVEYPWKGSGYYHRPISINYRTGSGSHHHHHH
notes: Anti-PCSK9 Adnectin, GSGS-His6 tail; the entry already carries the substitution
B24: 1922G04(R25E) (designed binder)
chain: B23 chain with D25E
notes: as for B23

For one assay, the target named is T1, human PCSK9 (proprotein convertase subtilisin kexin type 9) (human, UniProt Q8NBP7 31-692). Description: cell-based or functional assay.
Consider B1, for which the “LDLR Depletion (% inhibition at 75 nM)” value is 68.2%.
Still for that read-out and setting: the result for B2 reads 110%.
Still for that read-out and setting: the result for B3 reads 125%.
Same read-out and setting: with B4 the figure was 77.8%; with B5, 53.4%.
For B6, the “LDLR Depletion (% inhibition at 75 nM)” value worked out at 125%.
The same measure, in the same setting: the result for B7 reads 119%.
Regarding B8, the “LDLR Depletion (% inhibition at 75 nM)” value stood at 122%.
The same measure, in the same setting: with B9 the figure was 57.7%.
Still for that read-out and setting: the result for B10 reads 53.7%.
Still for that read-out and setting: the result for B11 reads 70.3%.
Take B12: the “LDLR Depletion (% inhibition at 75 nM)” value stood at 105%.
The same measure, in the same setting: with B13 the figure was 126%.
Same read-out and setting: the result for B14 reads 101%.
The same measure, in the same setting: the result for B15 reads 120%; that for B16, 109%; that for B17, 132%.
For the molecule B18, the “LDLR Depletion (% inhibition at 75 nM)” value was 100%.
For B19, the “LDLR Depletion (% inhibition at 75 nM)” value came to 119%.
On the same count and under the same terms, the result for B20 reads 122%; that for B21, 22.2%.

The target in a further assay is T1, human PCSK9 (proprotein convertase …). Description: PCSK9:EGFA FRET, competitor EGFA peptide.
As to B22, the midpoint of the response, the EC50, lay at 2.6 nM.
The same measure, in the same setting: with B1 the figure was 3.2 nM.
Still for that read-out and setting: with B2 the figure was 4 nM.
Still for that read-out and setting: with B3 the figure was 2.6 nM.
In turn, B4 yielded an EC50 of 2.7 nM.
B5 registered an EC50 of 5 nM.
The molecule B6 had a 50% effective concentration (EC50) of 2.5 nM.
The same measure, in the same setting: with B7 the figure was 2.9 nM; with B8, 2.4 nM.
On the same count and under the same terms, the result for B9 reads 9 nM; that for B10, 10.9 nM.
The same measure, in the same setting: with B11 the figure was 9.7 nM; with B12, 3.8 nM.
B14: the midpoint of the response, the EC50, lay at 0.9 nM.
The same measure, in the same setting: with B16 the figure was 2.6 nM; with B18, 3 nM; with B19, 2.6 nM.
Consider B20, for which the half-maximal effective concentration (EC50) worked out at 3.5 nM.
On the same count and under the same terms, the result for B21 reads 4 nM.

A further assay has the same target. The assay is described as follows: BLI (Octet Red), 37 C. Here is the method:
Tips were then immersed into a buffer-only well for observation of Adnectin dissociation. Experiments were performed in a temperature controlled environment at either 25 or 37° C., and the oscillation speed was set at 1500 rpm.
Binding interaction analysis was performed using proprietary software from Fortebio (Fortebio Data Analysis Software version 6.3.0.36). Global fits were performed for all samples, using a 1:1 binding model. The nature of these global fits constrained all values of concentration to a single pair of association and dissociation rates that were themselves constrained to each other. Affinities (KD), association and dissociation rates were averaged over the various loading levels used in the analysis.
(Biolayer interferometry detects binding as a change in optical thickness at a sensor tip.)
As for B22, binding was put at a Kd of 0.314 nM.
Regarding B2, the affinity, expressed as Kd, was 1.59 nM.
Still for that read-out and setting: the result for B3 reads 4.11 nM.
Still for that read-out and setting: the result for B6 reads 3.29 nM; that for B7, 0.237 nM; that for B8, 0.527 nM.
Same read-out and setting: with B12 the figure was 0.656 nM.
For the molecule B13, binding was put at a Kd of 1.78 nM.
The same measure, in the same setting: with B14 the figure was 1.86 nM.
Same read-out and setting: with B15 the figure was 0.806 nM.
Regarding B16, the Kd is 0.304 nM.
Still for that read-out and setting: with B17 the figure was 2.79 nM; with B18, 2.35 nM.
On the same count and under the same terms, with B19 the figure was 1.4 nM; with B20, 0.757 nM.

Another assay addresses cynomolgus monkey PCSK9 (cynomolgus monkey, UniProt A0A7N9D9N8 150-747). The assay is described as follows: FRET, competitor EGFA peptide. An excerpt:
(§1) Table 11 summarizes the overall data from these three FRET assays.
In the case of B23, the half-maximal inhibitory concentration (IC50) turned out to be 48.1 nM.
Same read-out and setting: the result for B24 reads 58.5 nM.

For a further assay, the target named is T2, human PCSK9 (proprotein convertase subtilisin kexin type 9) (human, UniProt Q8NBP7 31-692).
T2 construct: Directly immobilized (SPR ProteOn), biotinylated (BLI), or in solution, depending on the assay; also called hPCSK9
Description: FRET, competitor EGFA peptide.
Text: as §1
The molecule B23 showed an IC50 of 2.5 nM.
Still for that read-out and setting: with B24 the figure was 3.5 nM.
